The text below walks through data of patent CN113480644A.

The target of this test is SARS-CoV-2 S蛋白 (on virus particles) (SARS-CoV-2) (UniProt P0DTC2). Briefly: cell-based or functional assay.

The substance REGN10987 (antibody) yielded a 中和效率(IC 50), 假病毒中和 (MLV pseudovirus, ACE2-HEK293) of 0.162 µg/mL.
